First the molecules themselves.
B1: Tryptophan synthase alpha chain, P0A877 (parent)
chain: MERYESLFAQLKERKEGAFVPFVTLGDPGIEQSLKIIDTLIEAGADALELGIPFSDPLADGPTIQNATLRAFAAGVTPAQCFEMLALIRQKHPTIPIGLLMYANLVFNKGIDEFYAQCEKVGVDSVLVADVPVEESAPFRQAALRHNVAPIFICPPNADDDLLRQIASYGRGYTYLLSRAGVTGAENRAALPLNHLVAKLKEYNAAPPLQGFGISAPDQVKAAIDAGAAGAISGSAIVKIIEQHINEPEKMLAALKVFVQPMKAATRS

Variants of B1 are the subject of the series. The conditions noted are these: Escherichia coli (strain K12), pH 7.8, Thermal, DSC, Sodium phosphate 1 mM, reversible: yes, structure 1WQ5, whole UniProt chain shown.

In general, Tm refers to the temperature at which the thermal transition is half complete. On to MERYESLFAQLKERKEGAFVPFVTLGDPGIEQSLKIIDTLIEAGADALELGIPFSDPLADGPTIQNATLRAFAAGVTPAQCFEMLALIRQKHPTIPIGLLMYANLVFNKGIDEFYAQCEKVGVDSVLVADVPVEESAPFRQAALRHNVAPIFICPPNADDDLLRQIASYGRGYTYLLSRAGVTGAENRAALPLNHLVAKLKEYNAAPPLQEFGISAPDQVKAAIDAGAAGAISGSAIVKIIEQHINEPEKMLAALKVFVQPMKAATRS [G211E], for which the Tm came out at 59.6 °C; the “change of melting temperature, mutant - wild type (higher = more stable)” value is 1.8 °C; the “heat capacity change of unfolding” value stood at 2.7 kcal/mol/K; the “unfolding enthalpy (calorimetric)” value amounted to 109 kcal/mol. In addition, the “unfolding enthalpy (van 't Hoff)” value came out at 107 kcal/mol. Also, for the setting “57.8 °C, EDTA 0.2 mM”, the “ddG of mutation (higher = less stable)” value was -0.6 kcal/mol and the “heat capacity change of unfolding” value turned out to be 2.7 kcal/mol/K.
On to MERYESLFAQLKERKEGAFVPFVTLGDPGIEQSLKIIDTLIEAGADALELGIPFSDPLADGPTIQNATLRAFAAGVTPAQCFEMLALIRQKHPTIPIGLLMYANLVFNKGIDEFYAQCEKVGVDSVLVADVPVEESAPFRQAALRHNVAPIFICPPNADDDLLRQIASYGRGYTYLLSRAGVTGAENRAALPLNHLVAKLKEYNAAPPLQRFGISAPDQVKAAIDAGAAGAISGSAIVKIIEQHINEPEKMLAALKVFVQPMKAATRS [G211R], for which the Tm worked out at 58 °C; the “change of melting temperature, mutant - wild type (higher = more stable)” value is 0.2 °C; the “heat capacity change of unfolding” value was determined as 2.8 kcal/mol/K; the “unfolding enthalpy (calorimetric)” value came out at 111 kcal/mol. In addition, the “unfolding enthalpy (van 't Hoff)” value was found to be 113 kcal/mol. Also, where the note is “57.8 °C, EDTA 0.2 mM”, the “ddG of mutation (higher = less stable)” value was -0.1 kcal/mol and the “heat capacity change of unfolding” value is 2.8 kcal/mol/K.

(Values after FireProtDB (doi:10.1021/bi00548a004).)
